Columns and labels:
[1] = target: rhodamine-labelled SemD (SemD^Rhod) (Chlamydia pneumoniae); experiment: recruitment to giant unilamellar vesicles (confocal microscopy); PS-containing GUVs with bound SemD^Rhod or mutSemD^Rhod (1 µg) and GFP-fused partner (1 µg) in PBS, room temperature, imaged 5-20 min; fluorescence intensity ratio of GUV perimeter to background
[2] = target: BR-GBD fused to GFP (BR-GBD_(GFP-His)) (Rattus norvegicus) (UniProt O08816); experiment: pull-down; GFP-Trap agarose, BR-GBD_(GFP-His) or GFP alone as bait, equimolar test protein, 5 min RT then 30 min 4 °C, washed 6x with 10 mM Tris-HCl, 200 mM NaCl, pH 8.5; immunoblot, Elution:FT ratio normalised to the bait
[3] = target: N-WASP BR-GBD_(142-273) (Rattus norvegicus) (UniProt O08816); experiment: SEC-SAXS; Superdex200 increase 10/300 GL, PBS pH 8.5 + 3 % glycerol, 20 °C; 8 mg/ml SemDΔAPH, 10 mg/ml BR-GBD, 8 mg/ml SemDΔAPH + BR-GBD, 3.3 mg/l SemDΔAPH + SNX9-SH3
[4] = target: BR-GBD fused to GFP (BR-GBD_(GFP-His)) (Rattus norvegicus) (UniProt O08816); experiment: pull-down; GFP-Trap agarose, BR-GBD_(GFP-His) as bait, equimolar SemDΔAPHHis and Cdc42_(GppNHp) added simultaneously; immunoblot, normalised Elution:FT ratio
SNX9-SH3GFP = experiment: GUV membrane recruitment assay, confocal fluorescence quantification; settings: PS-containing GUVs, read off a plot

BR-GBD fused to GFP (BR-GBD_(GFP-His)) (Rattus norvegicus), sequence (O08816 142-273): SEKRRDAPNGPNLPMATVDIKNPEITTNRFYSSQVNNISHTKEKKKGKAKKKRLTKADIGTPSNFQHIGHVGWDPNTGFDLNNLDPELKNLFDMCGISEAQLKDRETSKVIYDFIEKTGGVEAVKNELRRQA
BR-GBDΔGFP (lacking the BR domain), sequence (O08816 other isoform, or with tags, fused parts or gaps mutant): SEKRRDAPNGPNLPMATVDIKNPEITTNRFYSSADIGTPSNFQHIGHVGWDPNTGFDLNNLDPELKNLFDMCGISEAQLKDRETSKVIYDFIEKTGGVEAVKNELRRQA
N-WASP BR-GBD_(142-273) (Rattus norvegicus), sequence (O08816 142-273): as the sequence (O08816 142-273) above
BR-GBD fused to GFP (BR-GBD_(GFP-His)), sequence (O08816 142-273): as above

BR-GBD fused to GFP (BR-GBD_(GFP-His)) (from UniProt O08816 142-273) (domain or fragment)
fluorescence intensity ratio (GUV perimeter to background) [1]: 44.5 fold

BR-GBDΔGFP (lacking the BR domain) (from UniProt O08816 142-273) (domain or fragment)
fold lower fluorescence intensity ratio than BR-GBDGFP (after 20 min) [1]: > 18 fold

SemDΔAPH_(67-382) (domain or fragment)
normalised Elution:FT ratio [2]: 100%
stoichiometry N [3]: 1
normalised Elution:FT ratio (with equimolar Cdc42 (GppNHp)) [4]: 100%

rhodamine-labelled SemD (SemD^Rhod) R91V; P92A; R94V; P95A; P97V; P98A; P99V; P100A; R117V; P119A; P121V; P122A
response (SNX9-SH3GFP; 5 min, parent: est. 950): 1.1
response (SNX9-SH3GFP; 20 min, parent: est. 830): 1.1
